The record followed here is US20210061904A1 (GMAX BIOPHARM, published 2021).

The target in assay [1] is human GLP-1 receptor (hGLP-1R) (human) (UniProt P43220). In words: cell-based or functional assay.
The target of assay [2] is T1, human gastric inhibitory polypeptide receptor (hGIPR) (human) (UniProt P48546).
T1 sequence: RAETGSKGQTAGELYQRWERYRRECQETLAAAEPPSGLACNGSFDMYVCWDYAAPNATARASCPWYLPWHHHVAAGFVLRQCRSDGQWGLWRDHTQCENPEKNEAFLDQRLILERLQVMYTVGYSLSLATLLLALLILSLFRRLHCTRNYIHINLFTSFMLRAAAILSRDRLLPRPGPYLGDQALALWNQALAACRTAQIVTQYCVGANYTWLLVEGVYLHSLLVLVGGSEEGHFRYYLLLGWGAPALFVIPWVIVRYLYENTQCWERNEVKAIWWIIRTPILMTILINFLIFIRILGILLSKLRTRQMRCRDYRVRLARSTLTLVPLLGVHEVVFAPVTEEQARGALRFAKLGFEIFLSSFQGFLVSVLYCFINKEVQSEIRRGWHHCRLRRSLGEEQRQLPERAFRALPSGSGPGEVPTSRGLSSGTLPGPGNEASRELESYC
The experiment in a line: cell-based or functional assay.

The target of assay [3] is T2, human gastric inhibitory polypeptide receptor (hGIPR) (human, UniProt P48546 22-466).
T2 sequence: T1 sequence
The experiment in a line: cell-based or functional assay.

In assay [4] the target is T2, human gastric inhibitory polypeptide …. The experiment in a line: FACS on CHO-DHFR-hGIPR cells, 1 µM antibody. The protocol:
PBS containing 10 mM EDTA was used to detach the CHO-DHFR-hGIPR cells and 10⁵ cells/tube was distributed into 1.5 mL EP tubes, and the supernatant was removed after centrifugation. The negative control sample was resuspended with a loading buffer (PBS, 2% FBS). For the positive control, 200 μL GIPR antibody solution of specific concentration was added to the cells and incubated at room temperature; after incubation, the cells were then centrifuged at 1500 rpm to remove the supernatant, washed with a FACS loading buffer and centrifuged again. The cells were resuspended with addition (200 μL/well) of a FITC labeled goat anti-mouse fluorescent antibody or PE labeled goat anti-human fluorescent antibody at 1:50 dilution and incubated at room temperature for 30 min in the dark. The supernatant was removed after centrifugation, and cells were washed with FACS loading buffer, centrifuged again and resuspended with the loading buffer for FACS analysis. The recombinant anti-hGIPR functional antibody specifically binds to GIPR-expressing CHO-DHFR-GIPR cells.

human GLP-1 receptor (hGLP-1R) (human), sequence (P43220 24-463): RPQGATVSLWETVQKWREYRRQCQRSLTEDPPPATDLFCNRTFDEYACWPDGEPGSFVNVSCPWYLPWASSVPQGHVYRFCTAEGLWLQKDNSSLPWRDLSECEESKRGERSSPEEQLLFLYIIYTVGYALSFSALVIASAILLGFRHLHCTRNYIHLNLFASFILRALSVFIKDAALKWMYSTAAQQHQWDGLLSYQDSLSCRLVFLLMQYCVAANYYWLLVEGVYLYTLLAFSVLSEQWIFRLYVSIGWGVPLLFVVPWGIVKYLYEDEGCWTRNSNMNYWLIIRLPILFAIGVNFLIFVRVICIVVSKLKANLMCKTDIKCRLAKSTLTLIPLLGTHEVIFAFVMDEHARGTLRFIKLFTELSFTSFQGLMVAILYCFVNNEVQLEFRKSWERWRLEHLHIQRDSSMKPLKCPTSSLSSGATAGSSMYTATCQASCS

B1: GIPR antibody/GLP-1 fusion protein GLP-1-Linker-L7H6 (protein, part only; not given: constant regions, not shown: a dimerising Fc or GST)
light, part: HGEGTFTSDVSSYLEGQAAKEFIAWLVKGGGGGSGGGGSGGGGSDIVLTQSPASLAVSPGQRATITCRASQSVNTAVYSYIHWYQQKPGQPPKLLIKYASNLESGVPARFSGSGSGTDFTLTINPVEANDAANYYCQHSFDFPYTFGGGTKVEIKR
heavy, part: QVQLQESGPGLVKPSQTLSLTCTVSGYSITSDYAWNWIRQPPGKGVEWMGYISYRGIATYKPSLKSRITISRDTSKNQFSLKLSSVTAADTAVYYCVRGEYGPGNFDFWGQGTTVTVSS
B1 yielded an EC50, CRE-Luciferase reporter gene assay on CHO-DHFR- cells co-expressing hGLP1R in assay [1] of 40 pM. Besides, in assay [2], the IC50, direct cAMP assay, antagonism of GIP (50 pM) activation of hGIPR on CHO-DHFR cells stood at 14.9 nM.

B2: hGIPR antibody L7H6 (antibody, V domains shown)
VH: B1 heavy, part
VL: DIVLTQSPASLAVSPGQRATITCRASQSVNTAVYSYIHWYQQKPGQPPKLLIKYASNLESGVPARFSGSGSGTDFTLTINPVEANDAANYYCQHSFDFPYTFGGGTKVEIKR
As for B2, the “IC50, direct cAMP assay, antagonism of GIP (50 pM) activation of hGIPR on CHO-DHFR cells” value in assay [3] was found to be 7.6 nM.

B3: hGIPR antibody L10H8 (antibody, V domains shown)
VH: QVQLQQSGAEVKKPGSSVKVSCKASGGTFSSYAISWVRQAPGQGLEWMGGIIPTFGTANYAQKFQGRVTITADESTSTAYMELSSLRSEDTAVYYCAQGPIVGAPTDYWGKGTLVTVSS
VL: SYVLTQPPSASGTPGQRVAISCSGSNSNIGSNTVHWYQQLPGAAPKLLIYSNNQRPSGVPDRFSGSNSGTSASLAISRLQSEDEADYYCAAWDDSLNGVVFGGGTKVTVL
notes: Recombinantly expressed complete antibody; Only the variable domains are tied to L10H8; also called Ll0H8
As for B3, the binding result in assay [4] is “binds”.
